# Measurements as given in patent US20250101446A1, “METHOD FOR GENETIC TRANSFORMATION OF PLANT ORGANELLE GENOME AND USES THEREOF” (Solar Grants Biotechnology Inc., priority 2022, published 2025).
# B1: plant-produced recombinant human IL-38, mature form C2-W152 with C-terminal 7xHIS tag (ligand)
# chain: CSLPMARYYIIKYADQKALYTRDGQLLVGDPVADNCCAEKICILPNRGLARTKVPIFLGIQGGSRCLACVETEEGPSLQLEDVNIEELYKGGEEATRFTFFQSSSGSAFRLEAAAWPGWFLCGPAEPQQPVQLTKESEPSARTKFYFEQSWHHHHHHH
# notes: range 2-152; also called rhIL-38; plantakine IL-38
# Test system: PHA-stimulated PBMCs
# Assay: Cytokine secretion from PHA-stimulated PBMCs treated with plantakines (multiplex Luminex)
# Format: cell-based, human
# Protocol: The bioactivity of our plantakines IL-37b and IL-38 was assessed by monitoring the secretion of 11 cytokines, generally regarded as inflammatory markers, from PBMCs stimulated with an IA. Freshly isolated human PBMCs were subjected to various treatments-combinations of the IAs with the plantakines at different concentrations. Two different model IAs were used, either the bacterial lipopolysaccharides (LPS) or a lectin from Phaseolus vulgaris (phytohaemagglutinin, PHA); each of the IAs was applied onto cells separately, each IA was applied at two concentrations: LPS at 150 and 300 μg/mL; PHA at 5 and 10 μg/mL. Each IA at each concentration was applied in combination with one of the two plantakines, each of them at three different concentrations: 1, 10 and 100 ng/ml of the monomeric forms present in the purified extracts. Also included were treatments comprised of either IA at their lower concentrations, in combination with both plantakines at 10 ng/ml concentration in order to assess possible synergistic effects. Cells with only IAs applied represented the reference (positive controls for each concentration), cells without any treatment represented the basal level (negative control). The levels of eleven different pro-inflammatory cytokines secreted into the medium from the PBMCs-GM-SCF, IFNγ. TNFα, IL-1α, IL-1β, IL-6, IL-8, IL-22, IL12, IL-17 and IL-10 were compared between the treatments and the controls. We applied Generalized Estimating Equation (GEE) model for the statistical data analysis. This statistical approach allows for nested observations and was used to test the effects of the plantakines IL-37b and IL-38 and their dosage in the context of IA-stimulated PBMCs inflammatory responses.
# After isolation, the PBMCs from each donor separately were counted, plated in equal numbers per well and stimulated for 24 h with the applied treatments. Control wells on the plate contained media only (as basal level controls), and LPS and PHA (as positive controls at their corresponding concentrations). After the 24 h treatments stimulation the PBMCs' culture supernatants were used in the multiplex Luminex platform-assisted analysis of the concentrations of the 11 secreted pro-inflammatory cytokines.
# The whole blood from 5 random human donors was collected in ACD Vacutainer tubes and immediately processed for isolation of PBMCs by gradient density centrifugation using Lympholyte. […] 5% CO2 and >80% humidity. PBMCs were treated with one of two IAs at 2 concentrations each (LPS at 150 and 300 μg/mL; PHA at 5 and 10 μg/mL) in combination with two test items (plant-produced IL-37b or IL-38) at three concentrations each (1, 10 and 100 ng/ml), based on the monomeric form amounts estimated with densitometry (ImageJ). Each treatment was tested in triplicates. Control wells contained media only (negative control, basal level of detection) and the examined IAs at both tested concentrations as the positive controls. The PBMCs were incubated for 24 hours after the stimulation for analysis of the levels of the secreted cytokines that were determined in the culture supernatant using a multiplex immunoassay (MAGPix®, Luminex), analytes were selected from the Milliplex panel HCYTOMAG-60K, sensitivity range of […]. All parameters of the Milliplex panel cytokines analysis using Luminex platform were validated (Millipore-Sigma).
# Non-linear logarithm transformation was performed to address non-normality of distribution of Luminex-derived numeric data. Generalized Estimating Equation (GEE) method was used in the analysis of nested (correlated) structure of the data. Secreted inflammatory cytokine values were used as dependent variables and test item (plantakines) with dosage as independent predictors (factors). Separate analyses were conducted for each of the 11 monitored cytokines and each inflammatory agent/concentration combination. […]
molecule,measurement,setting,value
B1,secreted GM-CSF level modulation vs positive control,"1 ng/mL, PHA 5 μg/mL","18.0%, p = 0.403"
same,secreted IFNγ level modulation vs positive control,"1 ng/mL, PHA 5 μg/mL","−35.6%, p = 0.137"
same,secreted IL-1α level modulation vs positive control,"1 ng/mL, PHA 5 μg/mL","−9.5%, p = 0.480"
same,secreted IL-1β level modulation vs positive control,"1 ng/mL, PHA 5 μg/mL","−2.0%, p = 0.888"
same,secreted IL-6 level modulation vs positive control,"1 ng/mL, PHA 5 μg/mL","−5.8%, p = 0.798"
same,secreted IL-8 level modulation vs positive control,"1 ng/mL, PHA 5 μg/mL","−11.3%, p = 0.736"
same,secreted IL-10 level modulation vs positive control,"1 ng/mL, PHA 5 μg/mL","17.4%, p = 0.244"
same,secreted IL-12 level modulation vs positive control,"1 ng/mL, PHA 5 μg/mL","63.3%, p = 0.020"
same,secreted IL-17 level modulation vs positive control,"1 ng/mL, PHA 5 μg/mL","4.1%, p = 0.807"
same,secreted IL-22 level modulation vs positive control,"1 ng/mL, PHA 5 μg/mL","8.1%, p = 0.631"
same,secreted TNFα level modulation vs positive control,"1 ng/mL, PHA 5 μg/mL","46.2%, p = 0.173"
same,secreted GM-CSF level modulation vs positive control,"1 ng/mL, PHA 10 μg/mL","1.5%, p = 0.881"
same,secreted IFNγ level modulation vs positive control,"1 ng/mL, PHA 10 μg/mL","−36.9%, p = 0.164"
same,secreted IL-1α level modulation vs positive control,"1 ng/mL, PHA 10 μg/mL","−5.8%, p = 0.469"
same,secreted IL-1β level modulation vs positive control,"1 ng/mL, PHA 10 μg/mL","0.0%, p = 1.000"
same,secreted IL-6 level modulation vs positive control,"1 ng/mL, PHA 10 μg/mL","−2.0%, p = 0.898"
same,secreted IL-8 level modulation vs positive control,"1 ng/mL, PHA 10 μg/mL","−5.8%, p = 0.823"
same,secreted IL-10 level modulation vs positive control,"1 ng/mL, PHA 10 μg/mL","22.1%, p = 0.033"
same,secreted IL-12 level modulation vs positive control,"1 ng/mL, PHA 10 μg/mL","22.2%, p = 0.476"
same,secreted IL-17 level modulation vs positive control,"1 ng/mL, PHA 10 μg/mL","22.1%, p = 0.166"
same,secreted IL-22 level modulation vs positive control,"1 ng/mL, PHA 10 μg/mL","86.8%, p < 0.001"
same,secreted TNFα level modulation vs positive control,"1 ng/mL, PHA 10 μg/mL","55.3%, p = 0.411"
same,secreted IFNγ level modulation vs positive control,"10 ng/mL, PHA 5 μg/mL","−53.2%, p = 0.032"
same,secreted IL-1α level modulation vs positive control,"10 ng/mL, PHA 5 μg/mL","4.1%, p = 0.690"
same,secreted IL-1β level modulation vs positive control,"10 ng/mL, PHA 5 μg/mL","4.1%, p = 0.801"
same,secreted IL-6 level modulation vs positive control,"10 ng/mL, PHA 5 μg/mL","10.5%, p = 0.538"
same,secreted IL-8 level modulation vs positive control,"10 ng/mL, PHA 5 μg/mL","8.3%, p = 0.772"
same,secreted IL-10 level modulation vs positive control,"10 ng/mL, PHA 5 μg/mL","15.0%, p = 0.224"
same,secreted IL-12 level modulation vs positive control,"10 ng/mL, PHA 5 μg/mL","107.0%, p = 0.079"
same,secreted IL-17 level modulation vs positive control,"10 ng/mL, PHA 5 μg/mL","24.6%, p = 0.215"
same,secreted IL-22 level modulation vs positive control,"10 ng/mL, PHA 5 μg/mL","55.8%, p < 0.001"
same,secreted TNFα level modulation vs positive control,"10 ng/mL, PHA 5 μg/mL","49.2%, p = 0,123"
same,secreted GM-CSF level modulation vs positive control,"10 ng/mL, PHA 10 μg/mL","42.6%, p = 0.016"
same,secreted IFNγ level modulation vs positive control,"10 ng/mL, PHA 10 μg/mL","−53.2%, p = 0.046"
same,secreted IL-1α level modulation vs positive control,"10 ng/mL, PHA 10 μg/mL","−2.0%, p = 0.893"
same,secreted IL-1β level modulation vs positive control,"10 ng/mL, PHA 10 μg/mL","4.1%, p = 0.761"
same,secreted IL-6 level modulation vs positive control,"10 ng/mL, PHA 10 μg/mL","6.2%, p = 0.722"
same,secreted IL-8 level modulation vs positive control,"10 ng/mL, PHA 10 μg/mL","−3.9%, p = 0.886"
same,secreted IL-10 level modulation vs positive control,"10 ng/mL, PHA 10 μg/mL","32.3%, p < 0.001"
same,secreted IL-12 level modulation vs positive control,"10 ng/mL, PHA 10 μg/mL","8.8%, p = 0.750"
same,secreted IL-17 level modulation vs positive control,"10 ng/mL, PHA 10 μg/mL","19.7%, p = 0.188"
same,secreted IL-22 level modulation vs positive control,"10 ng/mL, PHA 10 μg/mL","61.7%, p = 0.061"
same,secreted TNFα level modulation vs positive control,"10 ng/mL, PHA 10 μg/mL","166.4%, p = 0.105"
same,secreted IFNγ level modulation vs positive control,"100 ng/mL, PHA 5 μg/mL","6.2%, p = 0.856"
same,secreted IL-1α level modulation vs positive control,"100 ng/mL, PHA 5 μg/mL","46.2%, p = 0.015"
same,secreted IL-1β level modulation vs positive control,"100 ng/mL, PHA 5 μg/mL","43.3%, p = 0.019"
same,secreted IL-6 level modulation vs positive control,"100 ng/mL, PHA 5 μg/mL","15.0%, p = 0.432"
same,secreted IL-8 level modulation vs positive control,"100 ng/mL, PHA 5 μg/mL","10.5%, p = 0.731"
same,secreted IL-10 level modulation vs positive control,"100 ng/mL, PHA 5 μg/mL","15.0%, p = 0.275"
same,secreted IL-12 level modulation vs positive control,"100 ng/mL, PHA 5 μg/mL","123.0%, p < 0.001"
same,secreted IL-17 level modulation vs positive control,"100 ng/mL, PHA 5 μg/mL","29.7%, p = 0.107"
same,secreted IL-22 level modulation vs positive control,"100 ng/mL, PHA 5 μg/mL","15.3%, p = 0.347"
same,secreted TNFα level modulation vs positive control,"100 ng/mL, PHA 5 μg/mL","85.9%, p = 0.026"
same,secreted IFNγ level modulation vs positive control,"100 ng/mL, PHA 10 μg/mL","6.2%, p = 0.852"
same,secreted IL-1α level modulation vs positive control,"100 ng/mL, PHA 10 μg/mL","40.5%, p < 0.001"
same,secreted IL-1β level modulation vs positive control,"100 ng/mL, PHA 10 μg/mL","46.2%, p = 0.001"
same,secreted IL-6 level modulation vs positive control,"100 ng/mL, PHA 10 μg/mL","4.1%, p = 0.810"
same,secreted IL-8 level modulation vs positive control,"100 ng/mL, PHA 10 μg/mL","−2.0%, p = 0.943"
same,secreted IL-10 level modulation vs positive control,"100 ng/mL, PHA 10 μg/mL","22.1%, p = 0.033"
same,secreted IL-12 level modulation vs positive control,"100 ng/mL, PHA 10 μg/mL","74.3%, p = 0.002"
same,secreted IL-17 level modulation vs positive control,"100 ng/mL, PHA 10 μg/mL","55.3%, p = 0.003"
same,secreted IL-22 level modulation vs positive control,"100 ng/mL, PHA 10 μg/mL","50.0%, p = 0.020"
same,secreted TNFα level modulation vs positive control,"100 ng/mL, PHA 10 μg/mL","252.5%, p = 0.017"
same,Decreased secretion: number of treatments with statistically significant modulation,PHA 5 μg/mL,1
same,Increased secretion: number of treatments with statistically significant modulation,PHA 5 μg/mL,7
same,Decreased secretion: number of treatments with statistically significant modulation,PHA 10 μg/mL,1
same,Increased secretion: number of treatments with statistically significant modulation,PHA 10 μg/mL,12
